Experimental data reported in US20260049151A1 (SHENGHE CHINA BIOPHARMACEUTICAL, published 2026).
Read-outs that look alike come from different tables or passages of the source. One block for each binder: values may come before it.

How the values were obtained:
Human-TNFR2-His [1] = molecular target: T1, Human-TNFR2-His (human, UniProt P20333 23-257); assay: BLI, antibody on AHC sensor, 100 nM TNFR2-His in solution
T1 construct: Bought protein; also called human TNFR2 protein; TNFR2 protein; not shown: His tag
T1 sequence (looked up): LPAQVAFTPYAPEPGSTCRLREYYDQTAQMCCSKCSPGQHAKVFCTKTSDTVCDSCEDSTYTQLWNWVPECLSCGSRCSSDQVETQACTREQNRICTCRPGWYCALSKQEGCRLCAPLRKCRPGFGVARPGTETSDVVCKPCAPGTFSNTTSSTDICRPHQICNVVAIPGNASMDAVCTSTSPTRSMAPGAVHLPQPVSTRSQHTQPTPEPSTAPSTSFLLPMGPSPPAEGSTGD
Protocol: The AHC sensor was soaked in 0.02% PBST (0.02% Tween 20, pH 7.4, 1×PBS) as a buffer for 600 s to remove the sucrose covering the sensor surface. The AHC sensor was equilibrated with 0.02% PBST (0.02% Tween 20, pH 7.4, 1×PBS) as a buffer for 60 s, the antibody in the sample plate was solidified for 300 s, and the secondary equilibration buffer was used for 180 s. 100 nM human-TNFR2-His (manufacturer: SINO, CAT: 10417-H08H, LOT: LC15NO0412) protein was bound to the antibody for 300 s and then dissociated for 600 s. After dissociation, 10 mM glycine (pH 2.0) was used as a regeneration buffer for 30 s. The sensor was regenerated with 10 mM glycine (pH 2.0).

Human-TNFR2-His [2] = molecular target: T1, Human-TNFR2-His; assay: ELISA: Human-TNFR2-His coated (0.1 ug/mL), antibody titrated, goat anti-human IgG Fc detection (Example 2)
Human-TNFR2-His [3] = molecular target: T1, Human-TNFR2-His; assay: as above; remark: listed apart in the source
Protocol: (§1) Human-TNFR2-His (manufacturer: SINO, CAT: 10417-H08H, LOT: LC15NO0412) was diluted to 0.1 μg/mL with a coating solution (1×PBS, pH7.4), and coated in 96-well ELISA plate at 100 µL/well overnight at 4° C. The coating solution was poured off. Each well was washed with 1×PBST at 300 μL, washed 4 times with a plate washer, and patted dry on a flat paper. It was blocked with 3% skim milk powder at 300 μL/well, and incubated at 37° C. for 1 h. The blocking solution was poured off, washed 4 times with a plate washer, and patted dry on a flat paper. Negative control and positive control were set up. […] The positive control and antibody were diluted to 10 μg/mL with 3% skim milk powder as the starting concentration, and then diluted by 3-fold gradient (11 gradients in total), and a blank well was set up and only the diluent was added. It was incubated at 37° C. for 1 h at 100 μL/well. The liquid in the well was discarded, washed 4 times with a plate washer, and patted dry on a flat paper. Goat anti-human IgG Fc was diluted with 3% skim milk powder at 1:10000, and incubated at 37° C. for 1 h at 100 μL/well. It was washed 6 times with a plate washer, and patted dry on a flat paper. TMB color developing solution was added at 100 μL/well, and wrapped with aluminum foil. Color development was performed at 37° C. in the dark for 8 min. Termination solution 1M HCl was added to terminate the color development reaction at 100 μL/well. Readings were taken at 450 nm on an ELISA reader.

Human-TNFR2-His [4] = molecular target: T1, Human-TNFR2-His; assay: as above; remark: listed apart in the source
Protocol: as §1

Human-TNFR2-His [5] = molecular target: T1, Human-TNFR2-His; assay: as above; remark: listed apart in the source
Protocol: as §1, with “Termination solution 1M HCl was added to terminate the color development reaction at 100 μL/well.” left out

Human 4-1BB His [6] = molecular target: T2, Human 4-1BB His (human, UniProt Q07011 24-186); assay: BLI, antibody on AHC sensor, 100 nM 4-1BB His in solution
T2 construct: Bought protein; lots 198-2146F1-W6 and 2407c-214FF1-YC; also called human 4-1BB protein; 4-1BB protein; not shown: His tag
Text: The variable region of the antibody sequence of the positive control consists of SEQ ID NO: 15 and SEQ ID NO: 19, with the addition of the constant region of human IgG1 (SEQ ID NO: 46 and SEQ ID NO: 47). The AHC sensor was soaked in 0.02% PBST (0.02% Tween 20, pH 7.4, 1× PBS) as a buffer for 600 s to remove the sucrose covering the sensor surface. The AHC sensor was equilibrated with 0.02% PBST (0.02% Tween 20, pH 7.4, 1× PBS) as a buffer for 60 s, the antibody in the sample plate was solidified for 300 s, and the secondary equilibration buffer was used for 180 s. 100 nM human 4-1BB His (manufacturer: Acro, CAT: 41B-H5258, LOT: 198-2146F1-W6) protein was bound to the antibody for 300 s and then dissociated for 600 s. After dissociation, 10 mM glycine (pH 2.0) was used as a regeneration buffer for 30 s. The sensor was regenerated with 10 mM glycine (pH 2.0).

Human 4-1BB His [7] = molecular target: T2, Human 4-1BB His; assay: ELISA: Human 4-1BB His coated (0.2 ug/mL), antibody titrated, goat anti-human IgG Fc detection (Example 3)
Protocol: (§2) Human 4-1BB His (manufacturer: Acro, CAT: 41B-H5258, LOT: 198-2146F1-W6) was diluted to 0.2 μg/mL with a coating solution (1×PBS, pH7.4), and coated in 96-well ELISA plate at 100 μL/well overnight at 4° C. The coating solution was poured off. Each well was washed with 1×PBST at 300 μL, washed 4 times with a plate washer, and patted dry on a flat paper. It was blocked with 3% skim milk powder at 300 μL/well, and incubated at 37° C. for 1 h. The blocking solution was poured off, washed 4 times with a plate washer, and patted dry on a flat paper. Negative control and positive control were set up. […] The variable region of the antibody sequence of the positive control consists of SEQ ID NO: 15 and SEQ ID NO: 19, with the addition of the constant region of human IgG1 (SEQ ID NO: 46 and SEQ ID NO: 47). The positive control and antibody were diluted to 10 μg/mL with 3% skim milk powder as the starting concentration, and then diluted by 3-fold gradient (11 gradients in total), and a blank well was set up and only the diluent was added. It was incubated at 37° C. for 1 h at 100 μL/well. The liquid in the well was discarded, washed 4 times with a plate washer, and patted dry on a flat paper. Goat anti-human IgG Fc was diluted with 3% skim milk powder at 1:20000, and incubated at 37° C. for 1 h at 100 μL/well. It was washed 6 times with a plate washer, and patted dry on a flat paper. TMB color developing solution was added at 100 μL/well, and wrapped with aluminum foil. Color development was performed at 37° C. in the dark for 8 min. Termination solution 1M HCl was added to terminate the color development reaction at 100 μL/well. Readings were taken at 450 nm on an ELISA reader.

Human 4-1BB His [8] = molecular target: T2, Human 4-1BB His; assay: as above; remark: listed apart in the source
Protocol: as §2

Human 4-1BB His [9] = molecular target: T2, Human 4-1BB His; assay: as above; remark: listed apart in the source
Protocol: as §2

Human 4-1BB His [10] = molecular target: T2, Human 4-1BB His; assay: as above; remark: listed apart in the source
Protocol: as §2

Human 4-1BB His [11] = molecular target: T2, Human 4-1BB His; assay: as above; remark: listed apart in the source
Protocol: as §2

Human 4-1BB His [12] = molecular target: T2, Human 4-1BB His; assay: as above; remark: listed apart in the source
Protocol: as §2, with “It was washed 6 times with a plate washer, and patted dry on a flat paper. TMB color developing solution was added at 100 μL/well, and wrapped with aluminum foil. Color development was performed at 37° C. in the dark for 8 min. Termination solution 1M HCl was added to terminate the color development reaction at 100 μL/well.” left out

T2 sequence (Q07011 24-186 limits assumed): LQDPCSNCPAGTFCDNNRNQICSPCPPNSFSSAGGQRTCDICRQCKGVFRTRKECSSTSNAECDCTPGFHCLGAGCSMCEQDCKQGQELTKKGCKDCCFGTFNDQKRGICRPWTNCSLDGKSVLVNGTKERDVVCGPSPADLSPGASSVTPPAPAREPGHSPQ

Kd (Human-TNFR2-His [1]): 1.61 nM
koff (Human-TNFR2-His [1]): 0.000427 s⁻¹
kon (Human-TNFR2-His [1]): 266000 M⁻¹ s⁻¹
EC50 (read off the curve) (Human-TNFR2-His [2]): ~0.04 nM
EC50 (read off the curve) (Human-TNFR2-His [3]): ~0.04 nM
EC50 (read off the curve) (Human-TNFR2-His [4]): 0.04 to 0.05 nM
EC50 (read off the curve) (Human-TNFR2-His [5]): 0.1 to 0.2 nM
B1: Positive control 2 (anti-TNFR2 VHH) (VHH)
VHH: EVQLVESGGGLVQPGGSLRLSCAASGSRLDYYAVAWFRQAPGKEREEVSCITYSGGSTNYAESVKGRFTISRDNSKNTLYLQMNSLRAEDTAVYYCTTEPYGSSCPLSGYDTWGQGTLVTVSS

Kd (Human 4-1BB His [6]): 14.2 nM
koff (Human 4-1BB His [6]): 0.00553 s⁻¹
kon (Human 4-1BB His [6]): 391000 M⁻¹ s⁻¹
EC50 (read off the curve) (Human 4-1BB His [7]): ~0.05 nM
EC50 (read off the curve) (Human 4-1BB His [8]): ~0.05 nM
EC50 (read off the curve) (Human 4-1BB His [9]): ~0.05 nM
EC50 (read off the curve) (Human 4-1BB His [10]): ~0.05 nM
EC50 (read off the curve) (Human 4-1BB His [11]): ~0.1 nM
EC50 (read off the curve) (Human 4-1BB His [12]): ~0.07 nM
B2: Positive control (anti-4-1BB antibody, human IgG1) (antibody, V domains shown)
VH: QVQLQESGPGLVKPSETLSLTCTVSGSSLTSYGVHWVRQPPGKGLEGLGVIWPGGSTNYNSALMSRVTISKDNSKSQVSLKMSSLTAADTAVYYCARVTGTWYFDVWGQGTTVTVSS
VL: DIQMTQSPSSLSASLGDRVTISCSASQGISNYLNWYQQKPDGTVKLLIYYTSTLHSGVPSRFSGSGSGTDYTLTISSLQPEDIATYYCQQYSKLPWTFGGGTKLEIK
notes: also called control antibody
